Ends that are not written are not given here. * marks the point of attachment. Bz = O=C(c1ccccc1)*

What all share (assay): ITC
The target of one test is T1, Taf14_(YEATS) (S. cerevisiae, UniProt P35189 2-137).
T1 chain: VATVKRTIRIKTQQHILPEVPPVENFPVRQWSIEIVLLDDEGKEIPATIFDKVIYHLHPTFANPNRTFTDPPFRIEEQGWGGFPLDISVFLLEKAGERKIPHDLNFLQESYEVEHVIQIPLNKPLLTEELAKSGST

For another test, the target named is T2, Sas5_(YEATS) (S. cerevisiae, UniProt Q99314 2-139).
T2 chain: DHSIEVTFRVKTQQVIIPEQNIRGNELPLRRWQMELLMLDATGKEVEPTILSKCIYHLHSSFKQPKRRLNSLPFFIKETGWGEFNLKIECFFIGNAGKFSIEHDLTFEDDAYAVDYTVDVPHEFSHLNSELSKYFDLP

The target in a further test is Hst2 (S. cerevisiae, UniProt P53686 1-357).
Hst2, sequence (P53686 whole entry): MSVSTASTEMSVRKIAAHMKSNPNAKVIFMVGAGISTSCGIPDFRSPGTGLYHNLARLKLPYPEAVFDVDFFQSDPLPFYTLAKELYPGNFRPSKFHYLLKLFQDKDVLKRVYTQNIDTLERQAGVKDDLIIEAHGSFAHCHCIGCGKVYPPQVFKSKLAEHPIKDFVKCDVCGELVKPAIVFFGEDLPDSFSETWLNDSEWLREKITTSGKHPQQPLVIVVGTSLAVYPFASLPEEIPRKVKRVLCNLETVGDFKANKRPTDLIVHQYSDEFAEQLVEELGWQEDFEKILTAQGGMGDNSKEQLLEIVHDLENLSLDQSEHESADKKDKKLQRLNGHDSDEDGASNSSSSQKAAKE

In the case of KQLASKAARK(Bz)SAPSTGGVKY [H3K27bz peptide], the Kd turned out to be 136 µM with Taf14_(YEATS), 92.6 µM with Sas5_(YEATS) and 6.13 µM in the test with Hst2.
For APRKQLASK(Bz)AARKSAPSTY [H3K23bz peptide], the Kd with Taf14_(YEATS) stood at 467 µM; with Sas5_(YEATS) it was 279 µM; in the test with Hst2 it was 14.8 µM.
Consider TARKSTGGK(Bz)APRKQLASY [H3K14bz peptide], for which the Kd with Taf14_(YEATS) stood at 385 µM; with Sas5_(YEATS), 100 µM; with Hst2 it was 13.2 µM.
For STGGKAPRKQLASKAARY (benzoyl-lysine (Kbz) at K18) [H3K18bz peptide] the same measures were 85.5 µM, 245 µM and 1.74 µM.
As to ARTKQTARKSTGGKAPRKQY (benzoyl-lysine (Kbz) at K9) [H3K9bz peptide], in the test with Sas5_(YEATS), the Kd came out at 178 µM.
